Data set [1] is described as follows: Chromophore titration, fit to single binding site isotherm: DFHBI. As to conditions: for Kd: n=1 titration, ± SD of the fit, Table 3C, read-out: DFHBI Kd. The protocol: (§1) Fluorescence binding assay. Protein-activated DFHBI fluorescence signals were measured in 96-well plate format (Corning 3650) on a Synergy neo2 plate reader (BioTek, Inc) with λex=450 nm or 460 nm and λem=500 nm or 510 nm. Binding reactions were performed at […] in PBS pH7.4 buffer. Protein concentrations were determined by 280 nm absorbance as described above. DFHBI (Lucerna, Inc) were resuspended in DMSO as instructed to make 100 mM stock and diluted in PBS to 0.5-10 μM. Approximate emission spectra were recorded for active designs from 490 to 600 nm.
(§2) Table 3A-C. Brightness and chromophore affinities of selected mFAP variants. Fluorescence brightness measurements at 10 μM (top table) and 100 nM (middle table) chromophore concentrations were normalized from 0 to 1 across all three chromophores (DFHBI, DFHBI-1T, and DFHO), and the normalized values for two protein concentrations tested for each chromophore at each chromophore concentration were averaged and standard deviations of the average computed. Reported values are the normalized averages and standard deviations of the means for each chromophore concentration and each chromophore. Reported relative densitometry values are the relative densitometry values normalized from 0 to 1 and represent how well each design expresses relative to one another in Lemo21(DE3) E. coli cultures. Thermodynamic dissociation constants (bottom table) are obtained by non-linear least squares fitting of chromophore titrations (n=1) to a single binding site isotherm, and values reported with the standard deviation of the fit. Where the obtained Kd values are below the protein concentration tested, the Kd and standard deviation of the fit are reported in parentheses. Values with “N/D” were not determined.

Data set [2] can be described thus: Chromophore titration, fit to single binding site isotherm: DFHBI-1T. The following applies: n=1 titration; ± SD of the fit; Table 3C. The protocol:
as §2

Data set [3] is described as follows: Chromophore titration, fit to single binding site isotherm: DFHO. As to conditions: n=1 titration; ± SD of the fit; Table 3C. The protocol: as §2
Data set [4] can be described thus: Fluorescence activation / brightness with DFHBI. The format is biochemical. The following applies: for Fluorescence brightness, 100 nM DFHBI / Fluorescence brightness, 10 μM DFHBI: normalized 0 to 1 across all three chromophores, average ± SD of two protein concentrations. The procedure: as §1, §2
The nature of data set [5]: Fluorescence brightness with DFHBI-1T. In kind it is biochemical. The following applies: normalized 0 to 1 across all three chromophores; average ± SD of two protein concentrations. The procedure:
as §2

Data set [6] in a line: Fluorescence brightness with DFHO. The format is biochemical. As to conditions: normalized 0 to 1 across all three chromophores; average ± SD of two protein concentrations. The protocol: as §2
Data set [7] can be described thus: DFHBI titration of Ca2+-responsive mFAP variants in excess or absence of Ca2+. The format is binding. The following applies: DFHBI titration in absence and presence of Ca^2+, n=1. The text has this:
FIG. 23. In vitro fluorescence characterization of Ca^2+-responsive mFAP variants. […] Normalized fluorescence values (n=1) are fit to a sigmoid equation using non-linear least squares fitting (lines). […] Error bars represent the standard deviation of the mean of 3 technical replicates. The means are fit to a sigmoid equation (for positive allostery) or inverse sigmoid equation (for negative allostery) with Hill coefficients of 1 using non-linear least squares fitting (lines) to extract reported Kd values in Table 5.
DFHBI Kd^+(in excess Ca^2+), DFHBI Kd^−(in absence of Ca^2+), and Ca^2+Kd (in excess DFHBI) are computed by fitting the normalized fluorescence readouts from titrations to a single binding site isotherm equation with Hill coefficient of 1 using non-linear least squares fitting. Standard deviations of the fit are reported. Hill coefficients are reported for fitting the titration data to a single binding site isotherm with variable Hill coefficient using non-linear least squares fitting, and the standard deviation of the fit are reported. For positive allosteric modulators, Kd^−/Kd^+ is reported, and for negative allosteric modulators, Kd^+/Kd^− is reported. […]

A further data set concerns E. coli cells. The data set is described as follows: Confocal imaging of E. coli expressing mFAP2a or mFAP2b labeled with chromophore. In kind it is cell-based. The following applies: for Chromophore selectivity, DFHBI versus DFHBI-1T: E. coli imaging. The text has this:
FIG. 20: Characterization of brighter and chromophore-specific mFAP variants (mFAP2a and mFAP2b). (a) Design model of de novo β-barrel variant mFAP2b protein backbone (cartoon) bound to small molecule chromophore DFHBI (sticks). (b, c) Chemical structures of the chromophores DFHBI and DFHBI-1T, respectively. (d, e) In vitro titration of (d) DFHBI or (e) DFHBI-1T with purified mFAP2, mFAP2b, and mFAP2a proteins. mFAP2a/DFHBI, mFAP2a/DFHBI-1T, and mFAP2b/DFHBI complexes are brighter than the mFAP2/DFHBI complex. mFAP2a has higher affinity toward DFHBI compared to mFAP2b. mFAP2a binds DFHBI-1T with higher affinity than mFAP2 and the complex has brighter fluorescence than the DFHBI systems. Error bars represent standard deviation of the mean of 8 technical replicates. Shown are the non-linear least squares fits to a single binding-site isotherm equation (lines). […] (f-i) The images on the left of each panel were acquired using a laser scanning confocal fluorescence microscope and show pseudo-colored normalized fluorescence intensity values per pixel. Scale bars represent 10 microns. In the design models shown on the right of each panel the residues unique to mFAP2b (V13, M15) and residues unique to mFAP2a (A13, F15) are shown as sticks. Intermolecular hydrogen bonds to the chromophore are shown as black dotted lines. […]
It was hypothesized that a commercially-available variant of the DFHBI chromophore with a trifluoromethyl group, DFHBI-1T (FIG. 20 c), could pack into the void without causing steric clashes with nearby amino acid side-chains and could therefore fit into the mFAP2a binding pocket, while […] would result in steric clashes in the mFAP2b pocket. Studying the fluorescence of mFAP2a and mFAP2b in the presence of DFHBI-1T experimentally validated this hypothesis. […] Based on the absolute and relative quantum yields measured for these four complexes, the brightest protein-chromophore combination is mFAP2a with DFHBI-1T, with an absolute quantum yield of 12.9% (˜3.5-fold dimmer than EGFP).

Data set [8] is described as follows: Photophysical characterization (absorbance, excitation, emission, extinction coefficient, quantum yield). The format is physicochemical.
Another data set deals with fixed COS-7 cells. In words: Photostability under continuous wave imaging. The format is cell-based. As to conditions: endoplasmic reticulum, 50 μM DFHBI, frame 1 to frame 200. The procedure:
FIG. 21: Super-resolution microscopy and photostability of mFAP2a and mFAP2b. (a-g) To show the application of the mFAP system in super-resolution microscopy, mFAP2a and mFAP2b were fused to a designed protein polymerizing into a filament (DHF119). (a) The maximum diameter of the DHF119 fiber fused to the 6×His-tagged mFAP2b was estimated to be ˜22 nm based on the computational design models. (b-d) The DHF119-GS-mFAP2a-6×His fiber was labeled at 5.78 μM DFHBI-1T and (e-f) the DHF119-GS-mFAP2b-6×His was labeled at 1.83 μM DFHBI. Both systems were imaged with (b,e) fluorescence widefield microscopy and (c,f) fluorescence localization microscopy. Scale bars are 1 micron. (d,g) Normalized average intensity profiles between the yellow arrowheads shown in the widefield image (black line) or localization reconstruction (grey line) estimate the diameter of the fluorescent filament. The mean and standard deviation of the mean of the full width half maximum (FWHM) values of the three intensity profiles are annotated, 11-k) Photostability of mFAP2a and mFAP2b complexes with DFHBI and DFHBI-1T compared to AcGFP1. […] Normalized fluorescence intensity images are shown for four regions of interest (ROIs). (h, i) Frames 1 (left) to 200 (right) were acquired under continuous wave imaging at 0.885 Hz (1.13 s/frame). Scale bars are 10 microns. […]

Changes are numbered by the printed parent chain. In names and notes the source's numbering stands.

B1: mFAP2b: SEQ ID NO:69; mFAP2.5 with V67I (protein)
chain: MSRAAQLLPGTWQVTMTNEDGQTSQGQWHFQPRSPYTMDIVAQGTISDGRPIVGYGKATVKTPDTLDIDITYPSLGNIKAQGQITMDSPTQFKWDATTKGENDFHGRLTGTLQRQE
modifications: (1)..(1) optionally absent
With B1, in [1] (DFHBI), the “Weaker affinity for the chromophore than mFAP2” value was around 14.1 fold. The Kd (in general, the constant that tells how readily two partners part at equilibrium) in data set [1] was found to be 1.67 ± 0.08 µM. The same molecule had a Kd in data set [2] of 42.2 ± 6.03 µM. Also, binding in data set [3] was put at a Kd of 9.01 ± 1.91 µM. The “DFHBI complex brighter than DFHBI-1T complex” value in [4] (FIG. 20 d,e) is given as around 70 fold. In data set [4] (neutral pH), the “Brighter than mFAP2.4” value is recorded as around 1.3 fold and the “Brighter than mFAP2.5” value is listed as around 1.2 fold. Further, in data set [4], the “Fluorescence brightness, 100 nM DFHBI” value turned out to be 0.82 ± 0.02 and the “Fluorescence brightness, 10 μM DFHBI” value was 1.0 ± 0.0. The “Brighter fluorescence than mFAP1” value in data set [4] (protein at 10-fold higher concentration than DFHBI, peak emission 511 nanometers) is “approximately 4.5”. For the same molecule, in data set [5], the “Fluorescence brightness, 100 nM DFHBI-1T” value stood at 0.01 ± 0.0 and the “Fluorescence brightness, 10 μM DFHBI-1T” value stood at 0.01 ± 0.0. In addition, in [6], the “Fluorescence brightness, 100 nM DFHO” value came to 0.01 ± 0.0 and the “Fluorescence brightness, 10 μM DFHO” value turned out to be 0.01 ± 0.0. Further, the “Allostery between Ca^2+ and DFHBI binding” value in data set [7] is on record as “no allostery”. Also, the “Fluorescent signal in E. coli with DFHBI-1T” value in the data set on E. coli cells (10 μM chromophore) is recorded as “does not give a fluorescent signal”. Further, the “Chromophore selectivity, DFHBI versus DFHBI-1T” value with E. coli cells is recorded as “pronounced chromophore selectivity”.

B2: mFAP2a: SEQ ID NO:66 (protein)
chain: B1 chain with V14A, M16F
modifications: (1)..(1) optionally absent
Regarding B2, the “Absolute quantum yield with DFHBI-1T” value in data set [8] turned out to be 12.9%. Also, the “Brightness, times dimmer than EGFP” value in data set [8] (with DFHBI-1T) is around 3.5 fold. The Kd in data set [1] was 0.0546 ± 0.01 µM. Also, in data set [2], the Kd was 3.7 ± 0.56 µM. This molecule came in with a Kd in [3] of 8.47 ± 1.99 µM. In data set [4] (low DFHBI concentration (554.88 nM), neutral pH), the “Brighter fluorescence than mFAP2b” value is around 1.3 fold. For the same molecule, in [4], the “Fluorescence brightness, 100 nM DFHBI” value is listed as 1.0 ± 0.0 and the “Fluorescence brightness, 10 μM DFHBI” value worked out at 0.77 ± 0.12. In addition, in [5], the “Fluorescence brightness, 100 nM DFHBI-1T” value was determined as 0.59 ± 0.06 and the “Fluorescence brightness, 10 μM DFHBI-1T” value is 0.92 ± 0.05. Also, in data set [6], the “Fluorescence brightness, 100 nM DFHO” value is recorded as 0.03 ± 0.01 and the “Fluorescence brightness, 10 μM DFHO” value stood at 0.04 ± 0.0. In addition, in the data set on E. coli cells, the “Chromophore selectivity, DFHBI versus DFHBI-1T” value is “pronounced chromophore promiscuity”. Also, in the data set on fixed COS-7 cells, the “Photostability compared to AcGFP1” value is on record as “higher fluorescent signal is retained”.

These data come from patent publication US20210047373A1, “BETA BARREL POLYPEPTIDES AND METHODS FOR THEIR USE” (UNIVERSITY OF WASHINGTON, priority 2018, published 2021).
